Assay results as given in patent publication US12570725 (DUKE UNIVERSITY, dated 2026).

Columns and labels:
Assay in all cases: cell-based or functional assay
[1] = molecular target: Dengue virus serotype 1 virion (Dengue virus serotype 1)
[2] = molecular target: Dengue virus serotype 2 virion (Dengue virus serotype 2)
[3] = molecular target: Dengue virus serotype 3 virion (Dengue virus serotype 3)
[4] = molecular target: Dengue virus serotype 4 virion (Dengue virus serotype 4)

Measured: FRNT50

B1: 119-1-D7 (antibody, V domains shown)
VH: EVQLVESGGGLVKPGGSLRLSCVASGFTFNIYNMNWVRQAPGRGLEWVSSISLSSSYIDYADSVEGRFTISRDNAKNSLSLQMNSLKAEDTAVYYCARGRRGEWLVLHDAFDLWGQGTLVTVSS
VL: EIVLTQSPDTLSLSPGEGATLSCRASRTITSTYLAWYQQKPGQAPRLLMYSVSTRAPGIPDRFSGSGSGTDFTLTISRLEPEDFAVYFCQQYGSTPPYTFGQGTKLEIR
> 5 µg/mL: all assays above
